Four molecules from patent US20250042970A1 (AURINIA PHARMACEUTICALS, published 2025) can be followed below.

B1: FLAG-tagged recombinant human APRIL (ligand)
chain: AVLTQKQKKQHSVLHLVPINATSKDDSDVTEVMWQPALRRGRGLQAQGYGVRIQDAGVYLLYSQVLFQDVTFTMGQVVSREGQGRQETLFRCIRSMPSHPDRAYNSCYSAGVFHLHQGDILSVIIPRARAKLNLSPHGTFLGFVKL
notes: KINEXA ligand; also called huAPRIL
B3: Variant BAv8-10-Ig (Fc fusion, human)
chain: AGQCSQNEYFDHLLRACIPCQVRCSSNTPPLTCQRYCNAGVTNSVKGTNAERKSSVECPPSPAPPVAGPSVFLFPPKPKDTLMISRTPEVTCVVVDVSHEDPEVQFNWYVDGVEVHNAKTKPREEQFNSTFRVVSVLTVVHQDWLNGKEYKCKVSNKGLPAPIEKTISKTKGQPREPQVYTLPPSREEMTKNQVSLTCLVKGFYPSDISVEWESNGQPENNYKTTPPMLDSDGSFFLYSKLTVDKSRWQQGNVFSCSVMHEALHNHYTQKSLSLSPGK
notes: domain: Fc; also called Variant 8-10-Ig; BAv8-10-PIg18
B4: Variant BAv9-5-Ig (Fc fusion, human)
chain: AGQCSQNEYFDRLVRACIPCQLRCSSNTPPLTCQRYCNAGVTNSVKGTNAERKSSVECPPSPAPPVAGPSVFLFPPKPKDTLMISRTPEVTCVVVDVSHEDPEVQFNWYVDGVEVHNAKTKPREEQFNSTFRVVSVLTVVHQDWLNGKEYKCKVSNKGLPAPIEKTISKTKGQPREPQVYTLPPSREEMTKNQVSLTCLVKGFYPSDISVEWESNGQPENNYKTTPPMLDSDGSFFLYSKLTVDKSRWQQGNVFSCSVMHEALHNHYTQKSLSLSPGK
notes: domain: Fc; also called Variant 9-5-Ig; BAv9-5-PIg18

Test [1] addresses T1, Variant BAv9-1-Ig (human, UniProt P01859-1 99-326 = IgG part).
T1 construct: domain: Fc; also called Variant 9-1-Ig; BAv9-1-pIg18
Briefly: KinExA. On the procedure: Equilibrium measurements were performed using FLAG-tagged, recombinant huBAFF and huAPRIL ligands. Fixed ligand concentrations of human BAFF or human APRIL were incubated with serial dilutions of the variant BCMA ECD-Ig fusion polypeptides, and free ligand was detected in a KINEXA 3200 Instrument. variant BCMA ECD-Ig fusion polypeptides were first diluted in equilibration buffer (1×PBS, pH 7.4, 1 mg/ml BSA) to a range of concentrations from 10 nM to 100 fM. The linear portion of the dilution series was typically 2-fold. Ligands were diluted in equilibration buffer to fixed concentrations ranging from 5 to 20 pM and then incubated with the variant BCMA-Ig dilutions in total reaction volumes ranging from 4.5 to 15 ml. Samples were incubated at room temperature for 48-72 hours to reach equilibrium. For each data point, a fresh column of 850 μl of bead slurry coated with Variant BAv-238475-Ig was introduced into the KINEXA flow cell. Equilibrated samples ranging from 1 to 5 ml reaction volume were injected at a flow rate of 0.25 ml/min. […] The DyLight 649 fluorescent signal was detected using the red filter set (620/30 nanometer excitation filter, 670/40 nanometer emission filter, 645 nanometer dichroic filter) on the KinExA instrument and converted to a voltage signal that was directly proportional to the concentration of free ligand in the equilibrated sample.
The various fusion proteins described above were expressed and purified as described previously (Examples 2 and 3 for the CET1019AS based plasmids and Examples 7 and 8 for the pcDNA based plasmids). […] The BAv9-1-Ig Fc proteins typically exist in solution as a dimeric fusion protein. The purified fusion proteins were assayed for binding activity using BIACORE (Example 9) and KINEXA (Example 11) assays.
(In KinExA the mixture passes briefly over coated beads that capture the unbound partner.)

The target in test [2] is T2, Variant BAv8-9-Ig (human, UniProt P01859-1 99-326 = IgG part).
T2 construct: domain: Fc; also called Variant 8-9-Ig; BAv8-9-PIg18
Briefly: KinExA.

In a further test the target is T3, Variant 9-3-Ig (human, UniProt P01859-1 99-326 = IgG part).
T3 construct: domain: Fc; also called BAv9-3
Briefly: KinExA.

The target in test [3] is T4, Variant BAv11-6-Ig (human, UniProt P01859-1 99-326 = IgG part).
T4 construct: domain: Fc; also called Variant 11-6-Ig; BAv11-6-PIg18
Briefly: KinExA.

Test [4] addresses T1, Variant BAv9-1-Ig. As to the kind of experiment: KinExA. This is another data set of the same source.
In test [5] the target is T5, Variant BAv1-12-Ig (human, UniProt P01859-1 99-326 = IgG part).
T5 construct: domain: Fc; also called Variant 1-12-Ig
Briefly: KinExA.

Test [6] concerns the target T6, Variant BAv3-10-Ig (human, UniProt P01859-1 99-326 = IgG part).
T6 construct: domain: Fc; also called Variant 3-10-Ig; BAv3-10-PIg18
Briefly: KinExA.

Test [7] addresses B3. As to the kind of experiment: KinExA.
For test [8], the target named is B4. As to the kind of experiment: KinExA.
In test [9] the target is T2, Variant BAv8-9-Ig. As to the kind of experiment: BIACORE SPR. An excerpt:
(§1) The standard kinetic assay measures binding kinetics of trimeric ligand (e.g., human BAFF, cynomolgus monkey APRIL, mouse BAFF, or mouse APRIL) coated on sensor chips and dimeric analytes (e.g., variant BCMA-Ig fusion proteins) in the mobile phase. […] For human BAFF, cynomolgus monkey APRIL, and mouse APRIL measurements, mouse monoclonal antibody (IgG1) anti-FLAG M2 (Sigma Aldrich, Cat. No. F1804) was immobilized on CM3 sensor chips (GE Healthcare, Cat. No. BR-1005-41) according to the manufacturer's protocol. Antibody was diluted to 30 μg/ml in immobilization buffer (10 mM pH 5±0.20; GE Healthcare; GE Healthcare, Catalog No. BR-1003-51). […] Unreacted sites were quenched with 35 μl of 1M ethanolamine-HCl, pH 8.5 (GE Healthcare, GE Healthcare, Cat. No. BR-1000-50). This procedure typically yielded 3,000-4,000 response units (RU) of coupled antibody.
(§2) The fusion polypeptides were diluted in HBS-EP buffer and flowed over ligand-coated sensor chips. The variant BCMA-Ig and surrogate control fusion proteins were injected at three concentrations (1.5 nM, 15 nM, and 150 nM at 30 μl/min for 2 minutes per association phase) in a single binding cycle, followed by a 20 minute incubation with HBS-EP buffer containing no protein at the same flow rate. A similar protocol was followed for Z-TACI-Ig, except that the injections were at 4.5 nM, 45 nM, and 450 nM.
(§3) The analyses described above were performed on protein preparations of representative variant BCMA ECD-Ig fusion polypeptides, as well as the Z-TACI-Ig and [S40G]huBCMA ECD-Ig control fusion polypeptides, and the data is presented in Table 1.
Target sequence in this assay (P01859 other isoform, or with tags, fused parts or gaps mutant limits assumed): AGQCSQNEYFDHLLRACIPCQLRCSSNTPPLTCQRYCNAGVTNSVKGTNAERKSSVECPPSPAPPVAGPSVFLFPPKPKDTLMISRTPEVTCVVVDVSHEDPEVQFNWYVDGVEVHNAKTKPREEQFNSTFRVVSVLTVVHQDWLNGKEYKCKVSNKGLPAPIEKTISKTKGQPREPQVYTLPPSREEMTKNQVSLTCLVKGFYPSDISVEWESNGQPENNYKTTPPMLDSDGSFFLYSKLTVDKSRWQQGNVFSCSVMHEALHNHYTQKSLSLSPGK
On the technique in general: Surface plasmon resonance follows binding to a sensor surface in real time, without labels.

For test [10], the target named is T4, Variant BAv11-6-Ig. As to the kind of experiment: BIACORE SPR.
Excerpt: as §1, §2, §3
Target sequence in this assay (P01859 other isoform, or with tags, fused parts or gaps mutant limits assumed): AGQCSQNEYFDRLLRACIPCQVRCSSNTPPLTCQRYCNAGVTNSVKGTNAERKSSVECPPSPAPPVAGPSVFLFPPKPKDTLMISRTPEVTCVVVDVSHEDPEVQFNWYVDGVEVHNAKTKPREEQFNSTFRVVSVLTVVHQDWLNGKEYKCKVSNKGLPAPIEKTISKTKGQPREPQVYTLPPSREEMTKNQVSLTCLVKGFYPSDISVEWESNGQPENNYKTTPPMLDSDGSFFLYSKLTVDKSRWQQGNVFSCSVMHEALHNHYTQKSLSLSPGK

For test [11], the target named is T1, Variant BAv9-1-Ig. Briefly: BIACORE SPR.
Excerpt: as §1, §2, §3
Target sequence in this assay (P01859 other isoform, or with tags, fused parts or gaps mutant limits assumed): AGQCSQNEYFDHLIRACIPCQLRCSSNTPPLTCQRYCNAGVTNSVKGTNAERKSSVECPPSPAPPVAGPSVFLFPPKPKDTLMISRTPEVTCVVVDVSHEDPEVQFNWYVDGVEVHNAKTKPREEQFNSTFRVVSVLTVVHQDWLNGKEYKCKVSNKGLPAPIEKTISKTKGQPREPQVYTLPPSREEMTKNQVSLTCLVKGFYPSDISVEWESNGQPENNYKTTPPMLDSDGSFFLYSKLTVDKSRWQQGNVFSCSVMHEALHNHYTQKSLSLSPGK

The target in another test is T7, BAv66-Ig (human, UniProt P01859-1 99-326 = IgG part).
T7 construct: domain: Fc; also called Variant BAv66-Ig
As to the kind of experiment: BIACORE SPR.
Excerpt: as §1, §2, §3

For test [12], the target named is T5, Variant BAv1-12-Ig. As to the kind of experiment: BIACORE SPR.
Excerpt: as §1, §2, §3
Target sequence in this assay (P01859 other isoform, or with tags, fused parts or gaps mutant limits assumed): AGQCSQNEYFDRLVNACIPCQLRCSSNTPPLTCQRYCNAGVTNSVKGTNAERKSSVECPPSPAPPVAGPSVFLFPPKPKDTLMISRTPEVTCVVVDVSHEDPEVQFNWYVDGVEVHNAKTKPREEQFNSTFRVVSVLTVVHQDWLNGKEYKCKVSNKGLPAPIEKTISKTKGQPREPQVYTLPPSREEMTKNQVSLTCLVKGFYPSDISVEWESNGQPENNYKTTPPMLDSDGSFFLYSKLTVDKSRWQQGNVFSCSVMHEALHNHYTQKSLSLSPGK

A further test has as its target T8, Variant 50238475-Ig (human, UniProt P01859-1 99-326 = IgG part).
T8 construct: domain: Fc; also called Parent 9; Variant 50238475-PIg18
As to the kind of experiment: BIACORE SPR.
Excerpt: as §1, §2, §3

For test [13], the target named is T6, Variant BAv3-10-Ig. As to the kind of experiment: BIACORE SPR.
Excerpt: as §1, §2, §3
Target sequence in this assay (P01859 other isoform, or with tags, fused parts or gaps mutant limits assumed): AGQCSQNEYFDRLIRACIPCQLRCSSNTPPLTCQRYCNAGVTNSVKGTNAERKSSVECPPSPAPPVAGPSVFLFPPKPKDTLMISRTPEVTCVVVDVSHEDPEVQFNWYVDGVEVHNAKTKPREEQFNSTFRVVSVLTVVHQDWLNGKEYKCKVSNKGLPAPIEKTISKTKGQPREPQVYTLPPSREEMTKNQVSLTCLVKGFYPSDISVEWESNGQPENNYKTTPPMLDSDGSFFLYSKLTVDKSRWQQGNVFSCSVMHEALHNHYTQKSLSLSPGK

Test [14] deals with B3. As to the kind of experiment: BIACORE SPR.
Excerpt: as §1, §2, §3

In test [15] the target is B4. Briefly: BIACORE SPR.
Excerpt: as §1, §2, §3

The target of test [16] is T9, FLAG-tagged cynomolgous APRIL (cynomolgus monkey, UniProt A0ACM8R0G4 110-250 (rhesus entry)).
T9 construct: FLAG-tagged, expressed with TPA signal peptide; also called cyAPRIL
T9 sequence: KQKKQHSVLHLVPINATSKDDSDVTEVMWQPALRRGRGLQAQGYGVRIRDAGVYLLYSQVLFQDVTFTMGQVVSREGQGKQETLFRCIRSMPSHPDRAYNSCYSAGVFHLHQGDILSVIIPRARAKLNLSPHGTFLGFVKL
Briefly: BIACORE SPR. On the procedure:
(§4) For human BAFF, cynomolgus monkey APRIL, and mouse APRIL measurements, mouse monoclonal antibody (IgG1) anti-FLAG M2 (Sigma Aldrich, Cat. No. F1804) was immobilized on CM3 sensor chips (GE Healthcare, Cat. No. BR-1005-41) according to the manufacturer's protocol. Antibody was diluted to 30 μg/ml in immobilization buffer (10 mM pH 5±0.20; GE Healthcare; GE Healthcare, Catalog No. BR-1003-51). […] Unreacted sites were quenched with 35 μl of 1M ethanolamine-HCl, pH 8.5 (GE Healthcare, GE Healthcare, Cat. No. BR-1000-50). This procedure typically yielded 3,000-4,000 response units (RU) of coupled antibody.
as §2
(§5) Using available information from the structures and published literature, several residues in BAv8-10 were targeted for substitution with conserved as well as non-conserved residues and their effect on BAFF and APRIL binding was assessed by BIACORE.

In test [17] the target is T10, FLAG-tagged human BAFF (human, UniProt Q9Y275 134-285, limits assumed).
T10 construct: used in BIACORE (Ex. 9) and KINEXA (Ex. 11); also called huBAFF
Briefly: BIACORE SPR. The procedure:
as §4, §2, §5

In test [18] the target is T10, FLAG-tagged human BAFF. Briefly: KinExA.
Test [19] has as its target B1. As to the kind of experiment: KinExA.
Test [20] concerns the target T9, FLAG-tagged cynomolgous APRIL. Briefly: BIACORE SPR.
Excerpt: as §1, §2, §3
The source holds these as a separate data set.

In test [21] the target is T10, FLAG-tagged human BAFF. Briefly: BIACORE SPR.
Excerpt: as §1, §2, §3
The source holds these as a separate data set.

In test [22] the target is T10, FLAG-tagged human BAFF. Briefly: KinExA. This is another data set of the same source.
Test [23] concerns the target B1. As to the kind of experiment: KinExA. This is another data set of the same source.
A further test has as its target membrane-huBAFF (human, UniProt Q9Y275 1-285). Briefly: cell-based or functional assay.

T8 sequence (P01859 other isoform, or with tags, fused parts or gaps mutant limits assumed): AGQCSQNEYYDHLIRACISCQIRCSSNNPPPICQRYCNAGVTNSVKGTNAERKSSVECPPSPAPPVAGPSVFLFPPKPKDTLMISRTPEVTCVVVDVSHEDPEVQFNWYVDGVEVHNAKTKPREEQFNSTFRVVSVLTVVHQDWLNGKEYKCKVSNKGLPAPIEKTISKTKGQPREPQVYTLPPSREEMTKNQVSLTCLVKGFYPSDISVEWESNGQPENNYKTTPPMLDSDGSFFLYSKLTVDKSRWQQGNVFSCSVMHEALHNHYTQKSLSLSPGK
T7 sequence (P01859 other isoform, or with tags, fused parts or gaps limits assumed): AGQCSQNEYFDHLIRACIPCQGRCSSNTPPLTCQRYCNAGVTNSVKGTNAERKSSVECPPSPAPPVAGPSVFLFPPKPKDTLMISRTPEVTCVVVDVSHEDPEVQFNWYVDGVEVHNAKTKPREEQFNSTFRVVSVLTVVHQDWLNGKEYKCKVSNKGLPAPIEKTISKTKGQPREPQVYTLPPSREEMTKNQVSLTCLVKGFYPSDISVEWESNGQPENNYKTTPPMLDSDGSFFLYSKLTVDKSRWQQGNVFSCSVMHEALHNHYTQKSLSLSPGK

Broadly, the Kd is a measure of binding affinity in units of concentration. For B1, the Kd came to 0.198 pM in the test with Variant BAv9-1-Ig [1]; 0.0224 pM in the test with Variant BAv8-9-Ig [2]; 18.9 pM with Variant 9-3-Ig; 1.63 pM in the test with Variant BAv11-6-Ig [3]; 0.198 pM with Variant BAv9-1-Ig [4]; 0.275 pM in the test with Variant BAv1-12-Ig [5]. Besides, the Kd was determined as 0.337 pM with Variant BAv3-10-Ig [6], 3.23 pM with Variant BAv8-10-Ig [7] and 1.64 pM with Variant BAv9-5-Ig [8].

B2: 6HIS-tagged murine BAFF (ligand, mouse, UniProt Q9WU72 127-309, looked up)
chain: AFQGPEETEQDVDLSAPPAPCLPGCRHSQHDDNGMNLRNIIQDCLQLIADSDTPTIRKGTYTFVPWLLSFKRGNALEEKENKIVVRQTGYFFIYSQVLYTDPIFAMGHVIQRKKVHVFGDELSLVTLFRCIQNMPKTLPNNSCYSAGIARLEEGDEIQLAIPRENAQISRNGDDTFFGALKLL
notes: also called mBAFF; muBAFF
As for B2, the Kd is 14.9 pM in the test with Variant BAv8-9-Ig [9]; 18.1 pM with Variant BAv11-6-Ig [10]; 15 pM with Variant BAv9-1-Ig [11]; 62.3 pM in the test with BAv66-Ig; 33.9 pM with Variant BAv1-12-Ig [12]; 26.4 pM in the test with Variant 50238475-Ig. Besides, the values for the Kd in the test with Variant BAv3-10-Ig [13], in the test with Variant BAv8-10-Ig [14] and with Variant BAv9-5-Ig [15] were 14.9 pM, 17.1 pM and 21.6 pM, respectively.
Take B3: the “fold improvement over control” value in test [16] was 0.75 fold; with FLAG-tagged human BAFF [17], 13.1 fold; with FLAG-tagged human BAFF [22], 233 fold; in [23] it was 0.05 fold. In the test with FLAG-tagged human BAFF [18], the “Selectivity for huBAFF (KD APRIL/KD BAFF)” value is 3.33 ratio. Further, the “Selectivity for huAPRIL (KD BAFF/KD APRIL)” value in [19] came to 0.3 ratio. In addition, the “fold improvement KD vs control” value in test [20] was 0.3 fold; with FLAG-tagged human BAFF [21], 5.3 fold.
As to B4, the “Selectivity for huBAFF (KD APRIL/KD BAFF)” value in the test with FLAG-tagged human BAFF [18] is 2.59 ratio. In addition, the “Selectivity for huAPRIL (KD BAFF/KD APRIL)” value in [19] came out at 0.39 ratio. In addition, the “fold improvement KD vs control” value turned out to be 0.5 fold in test [20] and 10.9 fold with FLAG-tagged human BAFF [21]. The figures for the “fold improvement over control” value (with FLAG-tagged human BAFF [22]; in test [23]) were 358 fold and 0.1 fold, respectively. Also, the “IC50 (read off the curve) (NFkappaB luciferase signal of HEK293-huBCMA reporter cells stimulated with HEK-293 cells expressing membrane huBAFF)” value with membrane-huBAFF is approximately 500 pM.
